The values that follow come from publication PMC10786891, “Massively parallel profiling of RNA-targeting CRISPR-Cas13d”.

First the molecules themselves.
B1: target 1 insA 3' of 22,insU 3' of 7 (mixed)
RNA 1: CACCCGUGCAAAAAUGCAGGGGUCUAAAACUGAGCGGAUAACCUCUCUAUGG
RNA 2: GGGAAUGGAUCCACAUCUACGAAUUCGUACACAUAGAGAGGUUAUCUCGCUCACCGAGAUCGGAAGAGCACACGU
B2: target 1 complement block 1-8 (mixed)
RNA 1: CACCCGUGCAAAAAUGCAGGGGUCUAAAACUGAGCGGAUAACCUCUCUAUGG
RNA 2: GGGAAUGGAUCCACAUCUACGAAUUCGUACCAUAGAGAGGUUAAGGCGAGUCCGAGAUCGGAAGAGCACACGU
B3: target 1 insA 3' of 19,insA 3' of 17 (mixed)
RNA 1: CACCCGUGCAAAAAUGCAGGGGUCUAAAACUGAGCGGAUAACCUCUCUAUGG
RNA 2: GGGAAUGGAUCCACAUCUACGAAUUCGUACCAUAAGAAGAGGUUAUCCGCUCACCGAGAUCGGAAGAGCACACGU
B4: target 1 insA 3' of 12,insU 3' of 2 (mixed)
RNA 1: CACCCGUGCAAAAAUGCAGGGGUCUAAAACUGAGCGGAUAACCUCUCUAUGG
RNA 2: GGGAAUGGAUCCACAUCUACGAAUUCGUACCAUAGAGAGGAUUAUCCGCUCUACCGAGAUCGGAAGAGCACACGU
B5: target 1 insA 3' of 13,insG 3' of 8 (mixed)
RNA 1: CACCCGUGCAAAAAUGCAGGGGUCUAAAACUGAGCGGAUAACCUCUCUAUGG
RNA 2: GGGAAUGGAUCCACAUCUACGAAUUCGUACCAUAGAGAGAGUUAUGCCGCUCACCGAGAUCGGAAGAGCACACGU
B6: target 1 insC 3' of 20,insG 3' of 11 (mixed)
RNA 1: CACCCGUGCAAAAAUGCAGGGGUCUAAAACUGAGCGGAUAACCUCUCUAUGG
RNA 2: GGGAAUGGAUCCACAUCUACGAAUUCGUACCACUAGAGAGGUGUAUCCGCUCACCGAGAUCGGAAGAGCACACGU
B7: target 1 insC 3' of 16,insG 3' of 8 (mixed)
RNA 1: CACCCGUGCAAAAAUGCAGGGGUCUAAAACUGAGCGGAUAACCUCUCUAUGG
RNA 2: GGGAAUGGAUCCACAUCUACGAAUUCGUACCAUAGACGAGGUUAUGCCGCUCACCGAGAUCGGAAGAGCACACGU
B8: target 1 C4G,G12A (mixed)
RNA 1: CACCCGUGCAAAAAUGCAGGGGUCUAAAACUGAGCGGAUAACCUCUCUAUGG
RNA 2: GGGAAUGGAUCCACAUCUACGAAUUCGUACCAUAGAGAGAUUAUCCGGUCACCGAGAUCGGAAGAGCACACGU
B9: target 1 C2A,C21A (mixed)
RNA 1: CACCCGUGCAAAAAUGCAGGGGUCUAAAACUGAGCGGAUAACCUCUCUAUGG
RNA 2: GGGAAUGGAUCCACAUCUACGAAUUCGUACAAUAGAGAGGUUAUCCGCUAACCGAGAUCGGAAGAGCACACGU
B10: target 1 insU 3' of 21,insU 3' of 4 (mixed)
RNA 1: CACCCGUGCAAAAAUGCAGGGGUCUAAAACUGAGCGGAUAACCUCUCUAUGG
RNA 2: GGGAAUGGAUCCACAUCUACGAAUUCGUACCUAUAGAGAGGUUAUCCGCUUCACCGAGAUCGGAAGAGCACACGU
B11: target 1 G13C,C21U (mixed)
RNA 1: CACCCGUGCAAAAAUGCAGGGGUCUAAAACUGAGCGGAUAACCUCUCUAUGG
RNA 2: GGGAAUGGAUCCACAUCUACGAAUUCGUACUAUAGAGACGUUAUCCGCUCACCGAGAUCGGAAGAGCACACGU
B12: target 1 insC 3' of 22,insU 3' of 15 (mixed)
RNA 1: CACCCGUGCAAAAAUGCAGGGGUCUAAAACUGAGCGGAUAACCUCUCUAUGG
RNA 2: GGGAAUGGAUCCACAUCUACGAAUUCGUACCCAUAGAGUAGGUUAUCCGCUCACCGAGAUCGGAAGAGCACACGU
B13: target 1 insG 3' of 22,insA 3' of 21 (mixed)
RNA 1: CACCCGUGCAAAAAUGCAGGGGUCUAAAACUGAGCGGAUAACCUCUCUAUGG
RNA 2: GGGAAUGGAUCCACAUCUACGAAUUCGUACGCAAUAGAGAGGUUAUCCGCUCACCGAGAUCGGAAGAGCACACGU
B14: target 1 insC 3' of 18,insU 3' of 1 (mixed)
RNA 1: CACCCGUGCAAAAAUGCAGGGGUCUAAAACUGAGCGGAUAACCUCUCUAUGG
RNA 2: GGGAAUGGAUCCACAUCUACGAAUUCGUACCAUACGAGAGGUUAUCCGCUCAUCCGAGAUCGGAAGAGCACACGU
B15: target 1 U3A,G13C (mixed)
RNA 1: CACCCGUGCAAAAAUGCAGGGGUCUAAAACUGAGCGGAUAACCUCUCUAUGG
RNA 2: GGGAAUGGAUCCACAUCUACGAAUUCGUACCAUAGAGACGUUAUCCGCACACCGAGAUCGGAAGAGCACACGU
B16: target 1 insC 3' of 22,insA 3' of 13 (mixed)
RNA 1: CACCCGUGCAAAAAUGCAGGGGUCUAAAACUGAGCGGAUAACCUCUCUAUGG
RNA 2: GGGAAUGGAUCCACAUCUACGAAUUCGUACCCAUAGAGAGAGUUAUCCGCUCACCGAGAUCGGAAGAGCACACGU
B17: target 1 insA 3' of 5,insG 3' of 4 (mixed)
RNA 1: CACCCGUGCAAAAAUGCAGGGGUCUAAAACUGAGCGGAUAACCUCUCUAUGG
RNA 2: GGGAAUGGAUCCACAUCUACGAAUUCGUACCAUAGAGAGGUUAUCCGACGUCACCGAGAUCGGAAGAGCACACGU
B18: target 1 A9U,U19C (mixed)
RNA 1: CACCCGUGCAAAAAUGCAGGGGUCUAAAACUGAGCGGAUAACCUCUCUAUGG
RNA 2: GGGAAUGGAUCCACAUCUACGAAUUCGUACCACAGAGAGGUUUUCCGCUCACCGAGAUCGGAAGAGCACACGU
B19: target 1 insA 3' of 17,insA 3' of 8 (mixed)
RNA 1: CACCCGUGCAAAAAUGCAGGGGUCUAAAACUGAGCGGAUAACCUCUCUAUGG
RNA 2: GGGAAUGGAUCCACAUCUACGAAUUCGUACCAUAGAAGAGGUUAUACCGCUCACCGAGAUCGGAAGAGCACACGU
B20: target 1 insC 3' of 10,insU 3' of 5 (mixed)
RNA 1: CACCCGUGCAAAAAUGCAGGGGUCUAAAACUGAGCGGAUAACCUCUCUAUGG
RNA 2: GGGAAUGGAUCCACAUCUACGAAUUCGUACCAUAGAGAGGUUCAUCCGUCUCACCGAGAUCGGAAGAGCACACGU
B21: target 1 insC 3' of 11,insC 3' of 10 (mixed)
RNA 1: CACCCGUGCAAAAAUGCAGGGGUCUAAAACUGAGCGGAUAACCUCUCUAUGG
RNA 2: GGGAAUGGAUCCACAUCUACGAAUUCGUACCAUAGAGAGGUCUCAUCCGCUCACCGAGAUCGGAAGAGCACACGU
B22: target 1 insU 3' of 9,insG 3' of 7 (mixed)
RNA 1: CACCCGUGCAAAAAUGCAGGGGUCUAAAACUGAGCGGAUAACCUCUCUAUGG
RNA 2: GGGAAUGGAUCCACAUCUACGAAUUCGUACCAUAGAGAGGUUAUUCGCGCUCACCGAGAUCGGAAGAGCACACGU
B23: target 1 G13A,A14G (mixed)
RNA 1: CACCCGUGCAAAAAUGCAGGGGUCUAAAACUGAGCGGAUAACCUCUCUAUGG
RNA 2: GGGAAUGGAUCCACAUCUACGAAUUCGUACCAUAGAGGAGUUAUCCGCUCACCGAGAUCGGAAGAGCACACGU

For this data set, the target named is T1, EsCas13d, nuclease-dead (Eubacterium siraeum, UniProt B0MS50, R295A;H300A;R849A;H854A).
T1 sequence: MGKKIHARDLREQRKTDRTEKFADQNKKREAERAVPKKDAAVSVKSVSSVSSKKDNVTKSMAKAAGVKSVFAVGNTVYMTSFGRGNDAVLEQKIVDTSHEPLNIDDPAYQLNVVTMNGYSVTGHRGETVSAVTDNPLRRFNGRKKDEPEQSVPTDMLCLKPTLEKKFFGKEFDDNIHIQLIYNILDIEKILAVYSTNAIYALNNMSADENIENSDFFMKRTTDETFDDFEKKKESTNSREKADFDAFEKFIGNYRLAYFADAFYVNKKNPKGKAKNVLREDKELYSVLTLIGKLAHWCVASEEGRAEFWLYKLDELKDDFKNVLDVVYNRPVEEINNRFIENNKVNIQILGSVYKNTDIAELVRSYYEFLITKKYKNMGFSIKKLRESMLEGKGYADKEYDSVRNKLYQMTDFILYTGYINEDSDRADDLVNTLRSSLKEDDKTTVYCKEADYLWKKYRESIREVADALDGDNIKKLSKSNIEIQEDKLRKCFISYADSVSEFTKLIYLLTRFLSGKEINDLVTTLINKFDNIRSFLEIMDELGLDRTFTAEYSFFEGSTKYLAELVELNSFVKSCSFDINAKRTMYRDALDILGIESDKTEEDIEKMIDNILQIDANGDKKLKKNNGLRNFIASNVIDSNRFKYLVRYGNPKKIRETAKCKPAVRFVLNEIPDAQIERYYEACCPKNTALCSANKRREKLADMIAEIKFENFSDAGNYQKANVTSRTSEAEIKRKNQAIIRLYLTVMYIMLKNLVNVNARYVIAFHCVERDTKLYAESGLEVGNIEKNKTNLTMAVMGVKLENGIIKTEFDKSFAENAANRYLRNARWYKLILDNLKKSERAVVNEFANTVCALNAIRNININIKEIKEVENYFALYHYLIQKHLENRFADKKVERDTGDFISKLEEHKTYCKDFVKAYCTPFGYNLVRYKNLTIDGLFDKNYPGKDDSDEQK
Description: crRNA (strand 1, pre-loaded); Mg2+; 40 mM Tris-HCl pH 7.5, 150 mM NaCl, 6 mM MgCl2, 1 mM DTT, 0.1% Tween-20, 0.2 mg/ml BSA; 25 C; 10 min per concentration, then washed. As to conditions: tags: His6-TwinStrep-SUMO cleaved; N-terminal SNAP kept (SNAP-Surface 488); label: 3' end held by stalled T7 RNA polymerase.
A word on the Kd: it is the constant that tells how readily two partners part at equilibrium. A high value points to lower affinity. Regarding B1, the Kd was 15.3 ± 0.7 nM.

The molecule B2 showed an equilibrium dissociation constant (Kd) of 11.4 ± 0.4 nM.

For the molecule B3, the affinity, expressed as Kd, was 37 ± 5 nM.

On to B4, for which the equilibrium dissociation constant (Kd) amounted to 40 ± 5 nM.

In turn, B5 gave an equilibrium dissociation constant (Kd) of 5.4 ± 0.5 nM.

In turn, B6 registered a dissociation constant Kd of 6.6 ± 0.5 nM. The Kd values of the last two molecules are within 1.5-fold of each other.

Consider B7, for which the dissociation constant (Kd) came out at 56 ± 13 nM. Against the preceding molecule, the Kd is about 8.5-fold higher.

In turn, B8 showed an equilibrium dissociation constant (Kd) of 3.39 ± 0.29 nM.

Molecule B9 came in with a Kd of 38 ± 6 nM.

Molecule B10 had a Kd of 21.8 ± 1 nM.

On to B11, for which the dissociation constant (Kd) came to 5.6 ± 0.7 nM. This Kd is about 3.9-fold lower than that of the molecule before.

The molecule B12 came in with a Kd of 29 ± 10 nM.

B13: the Kd amounted to 27.4 ± 2.6 nM.

B14 displayed a dissociation constant (Kd) of 30.7 ± 2.6 nM.

The molecule B15 came in with a Kd of 32.2 ± 3.2 nM.

Turning to B16, the Kd was 13.4 ± 2 nM.

Turning to B17, binding was characterised by a dissociation constant (Kd) of 6.6 ± 0.6 nM.

In the case of B18, the Kd is 26.3 ± 2.9 nM. Compared with the last molecule, the Kd is about 4-fold higher.

B19 yielded a Kd of 16.1 ± 1.2 nM.

B20 had a Kd of 14 ± 2.4 nM.

Regarding B21, the dissociation constant (Kd) is 29 ± 4 nM.

On to B22, for which the Kd came out at 10.6 ± 0.5 nM.

For the molecule B23, the Kd stood at 17.2 ± 1.6 nM.
